Results as given in WO2016170039A1 (dated 2016).

Target: T1, human angiopoietin 2 (human, UniProt O15123 19-496, limits assumed)
T1 construct: Bought (R&D Systems Cat.No. 623-AN) or produced in house; also called ANG-2; human ANG-2
T1 sequence: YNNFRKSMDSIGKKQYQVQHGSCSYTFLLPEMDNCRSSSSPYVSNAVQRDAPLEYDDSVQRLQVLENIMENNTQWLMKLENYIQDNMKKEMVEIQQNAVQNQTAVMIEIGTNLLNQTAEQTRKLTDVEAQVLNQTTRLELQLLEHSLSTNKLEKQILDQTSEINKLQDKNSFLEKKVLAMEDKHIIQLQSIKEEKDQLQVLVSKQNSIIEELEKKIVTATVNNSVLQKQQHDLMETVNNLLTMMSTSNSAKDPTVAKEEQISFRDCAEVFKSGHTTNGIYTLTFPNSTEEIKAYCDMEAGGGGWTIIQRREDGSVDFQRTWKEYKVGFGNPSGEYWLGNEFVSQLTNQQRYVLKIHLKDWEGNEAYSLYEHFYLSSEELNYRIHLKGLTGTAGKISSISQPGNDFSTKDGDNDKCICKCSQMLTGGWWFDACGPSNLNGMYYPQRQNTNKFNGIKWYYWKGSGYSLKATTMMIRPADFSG
Test: ANG-2/Tie2 receptor interaction ELISA; antibody pre-incubated with ANG-2; the IC50 (Table 2) is not given

B1: <ANG-2> LC06 (antibody, IgG1, V domains shown)
VH: not shown
VL: QPGLTQPPSVSVAPGQTARITCGGNNIGSKSVHWYQQKPGQAPVLVVYDDSDRPSGIPERFSGSNSGNTATLTISRVEAGDEADYYCQVWDSSSDHYVFGTGTKVTVLG
B1: binds.
